B1: PLAGL1 (parent)
chain: CKDFLCQFCAQRFGRKDHLTRHTK

Variants of: B1
Assay: protein stability index of a GFP-peptide fusion (GPS, HEK-293T) (PSI 1-6); higher = more stable
Settings: c terminus: a fixed tail appended
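Further: lentivirally expressed fusions sorted by FACS into six bins by GFP to DsRed ratio, PSI derived from sequencing read proportions per bin multiplied by bin number.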

**Q.** For CADFLCQFCAQRFGRKDHLTRHTK, which protein stability index is on record?
**A.** 1.7

**Q.** With CNDFLCQFCAQRFGRKDHLTRHTK as the variant, how does the protein stability index read?
**A.** 2.02

**Q.** For CKDFLCQFCAQRFGRKDHLTRHCK, which protein stability index is on record?
**A.** 2.17

**Q.** For CKDFLCQFCAQRFGRKDHLTRHRK, which protein stability index is on record?
**A.** 1.95

**Q.** Which protein stability index does the source give for CKDFLCQFCAQRFGRKDHLTRHDK here?
**A.** 2.81

**Q.** For CKDFLCQFCAQRFGRKDHLTRHGK, which protein stability index is on record?
**A.** 2.15

**Q.** Which protein stability index does the source give for CKDFLCQFCAQRFGRKDHLTRHLK here?
**A.** 1.62

**Q.** Which protein stability index does the source give for CKDFLCQFCAQRFGRKDHLTRHAK here?
**A.** 2

**Q.** With CKDFLCQFCAQRFGRKDHLTRHFK as the variant, how does the protein stability index read?
**A.** 2.23

**Q.** With CKDFLCQFCAQRFGRKDHLTRHWK as the variant, how does the protein stability index read?
**A.** 1.51

**Q.** For CKDFLCQFCAQRFGRKDHLTRHYK, which protein stability index is on record?
**A.** 1.77

**Q.** Which protein stability index does the source give for CKDFLCQFCAQRFGRKVHLTRHTK here?
**A.** 1.64

**Q.** For CKDFLCQFCAQRFGRKGHLTRHTK, which protein stability index is on record?
**A.** 1.67

**Q.** With CKDFLCQFCAQRFGRKCHLTRHTK as the variant, how does the protein stability index read?
**A.** 2.06

**Q.** Which protein stability index does the source give for CKDFLCQFCAQRFGRKIHLTRHTK here?
**A.** 2.52

**Q.** Which protein stability index does the source give for CKDFLCQFCAQRFGRKMHLTRHTK here?
**A.** 1.3

**Q.** With CKDFLCQFCAQRFGRKKHLTRHTK as the variant, how does the protein stability index read?
**A.** 1.94

**Q.** For CKDFLCQFCAQRFQRKDHLTRHTK, which protein stability index is on record?
**A.** 1.98

**Q.** Which protein stability index does the source give for CKDFLCQFCAQRFIRKDHLTRHTK here?
**A.** 2.08

**Q.** For CKDFLCQFCAQRFNRKDHLTRHTK, which protein stability index is on record?
**A.** 2.46

**Q.** For CKDFLCQFCAQRFARKDHLTRHTK, which protein stability index is on record?
**A.** 2.63

**Q.** Which protein stability index does the source give for CKDFLCQFCAQRFMRKDHLTRHTK here?
**A.** 2.59

**Q.** Which protein stability index does the source give for CKDFLCQFCAQRFYRKDHLTRHTK here?
**A.** 1.99

**Q.** Which protein stability index does the source give for CKDFLCQFCAQRFFRKDHLTRHTK here?
**A.** 1.79

**Q.** For CKDFLCQFCAQRFGRKDHLTTHTK, which protein stability index is on record?
**A.** 1.77

**Q.** For CKDFLCQFCAQRFGRKDHLTCHTK, which protein stability index is on record?
**A.** 2.01

**Q.** With CKDFLCQFCAQRFGRKDHLTSHTK as the variant, how does the protein stability index read?
**A.** 1.3

**Q.** With CKDFLCQFCAQRFGRKDHLTDHTK as the variant, how does the protein stability index read?
**A.** 2.37

**Q.** Which protein stability index does the source give for CKDFLCQFCAQRFGRKDHLTLHTK here?
**A.** 2.1

**Q.** With CKDFLCQFCAQRFGRKDHLTWHTK as the variant, how does the protein stability index read?
**A.** 2.16

**Q.** With CKDFLCQFCAQRFGRKDHLTAHTK as the variant, how does the protein stability index read?
**A.** 1.94

**Q.** With CKDFLCQFCAQRFGRKDHLTMHTK as the variant, how does the protein stability index read?
**A.** 1.97

**Q.** For CKDFLCQFCAQRFGRKDHLTQHTK, which protein stability index is on record?
**A.** 2.56

**Q.** With CKDFLCAFCAQRFGRKDHLTRHTK as the variant, how does the protein stability index read?
**A.** 2.38

**Q.** With CKDFLCCFCAQRFGRKDHLTRHTK as the variant, how does the protein stability index read?
**A.** 1.52

**Q.** With CKDFLCEFCAQRFGRKDHLTRHTK as the variant, how does the protein stability index read?
**A.** 2.25

**Q.** For CKDFLCKFCAQRFGRKDHLTRHTK, which protein stability index is on record?
**A.** 2.21

**Q.** With CKDFLCQFCAQRFGRKDHLVRHTK as the variant, how does the protein stability index read?
**A.** 2.28

**Q.** Which protein stability index does the source give for CKDFLCQFCAQRFGRKDHLQRHTK here?
**A.** 1.75

**Q.** Which protein stability index does the source give for CKDFLCQFCAQRFGRKDHLMRHTK here?
**A.** 2.66

**Q.** For CKDFLCQFCAQRFGRKDHLNRHTK, which protein stability index is on record?
**A.** 2.01

**Q.** With CKDFLCQFCAQRFGRKDHLRRHTK as the variant, how does the protein stability index read?
**A.** 1.93

**Q.** For CKDFLCQFCAQRFGRKDHLLRHTK, which protein stability index is on record?
**A.** 2.22

**Q.** With CKDFLCQFCAQRFGRKDHLYRHTK as the variant, how does the protein stability index read?
**A.** 1.82

**Q.** With CKDFLCQFCAQRFGRKDHLIRHTK as the variant, how does the protein stability index read?
**A.** 1.58

**Q.** With CKDFLCQFCAQRFGRKDHFTRHTK as the variant, how does the protein stability index read?
**A.** 2.58

**Q.** Which protein stability index does the source give for CKDFLCQFCAQRFGRKDHKTRHTK here?
**A.** 3.13

**Q.** Which protein stability index does the source give for CKDFLCQFCAQRFGRKDHHTRHTK here?
**A.** 2.16

**Q.** For CKDFLCQFCAQRFGRKDHITRHTK, which protein stability index is on record?
**A.** 2.32

**Q.** With CKDFLCQFCAQRFGRKDHYTRHTK as the variant, how does the protein stability index read?
**A.** 1.9

**Q.** Which protein stability index does the source give for CKDFLCQFCAQRFGRKDHMTRHTK here?
**A.** 2.4

**Q.** Which protein stability index does the source give for CKDFLCQFCAQRFGRKDHETRHTK here?
**A.** 1.99

**Q.** For CKDFLCQFCAQRFGRKDHRTRHTK, which protein stability index is on record?
**A.** 2.39

**Q.** Which protein stability index does the source give for CKDFLCQFCAQRFGRKDHVTRHTK here?
**A.** 1.99

**Q.** With CKDFLCQFCAQRFGRKDHGTRHTK as the variant, how does the protein stability index read?
**A.** 2.73

**Q.** With CKDFLCQFCAQRFGRKDHWTRHTK as the variant, how does the protein stability index read?
**A.** 1.65

**Q.** Which protein stability index does the source give for CKDFLCQFCAQRFGRKDHLTRQTK here?
**A.** 1.77

**Q.** For CKDFLCQFCAQRFGRKDHLTRNTK, which protein stability index is on record?
**A.** 1.48

**Q.** Which protein stability index does the source give for CKDFLCQFCAQRFGRKDHLTRTTK here?
**A.** 2.57

**Q.** With CKDFLCQFCAQRFGRKDHLTRWTK as the variant, how does the protein stability index read?
**A.** 2.52

**Q.** With CKDFLCQFCAQRFGRKDHLTRATK as the variant, how does the protein stability index read?
**A.** 2.03

**Q.** For CKDFLCQFCAQRFGRKDHLTRGTK, which protein stability index is on record?
**A.** 2.56

**Q.** For CKDFLCQFCAQRFGREDHLTRHTK, which protein stability index is on record?
**A.** 1.93

**Q.** With CKDFLCQFCAQRFGRVDHLTRHTK as the variant, how does the protein stability index read?
**A.** 2.05

**Q.** With CKDFLCQFCAQRFGRWDHLTRHTK as the variant, how does the protein stability index read?
**A.** 2.33

**Q.** For CKDFLCQFCAQRFGRTDHLTRHTK, which protein stability index is on record?
**A.** 2.82

**Q.** For CKDFLCQFCAQRFGRPDHLTRHTK, which protein stability index is on record?
**A.** 2.25

**Q.** Which protein stability index does the source give for CKDFLCQFCAQRFGRNDHLTRHTK here?
**A.** 1.92

**Q.** For CKDFLCQFCAQRFGRSDHLTRHTK, which protein stability index is on record?
**A.** 1.95

**Q.** With CKDDLCQFCAQRFGRKDHLTRHTK as the variant, how does the protein stability index read?
**A.** 1.76

**Q.** For CKDKLCQFCAQRFGRKDHLTRHTK, which protein stability index is on record?
**A.** 2.41

**Q.** Which protein stability index does the source give for CKDSLCQFCAQRFGRKDHLTRHTK here?
**A.** 2.23

**Q.** Which protein stability index does the source give for CKDHLCQFCAQRFGRKDHLTRHTK here?
**A.** 1.58

**Q.** For CKDVLCQFCAQRFGRKDHLTRHTK, which protein stability index is on record?
**A.** 1.27

**Q.** For CKDMLCQFCAQRFGRKDHLTRHTK, which protein stability index is on record?
**A.** 2.21

**Q.** With CKDGLCQFCAQRFGRKDHLTRHTK as the variant, how does the protein stability index read?
**A.** 2.02

**Q.** Which protein stability index does the source give for CKDELCQFCAQRFGRKDHLTRHTK here?
**A.** 2.56

**Q.** With CKDFLCQFCAQRQGRKDHLTRHTK as the variant, how does the protein stability index read?
**A.** 2.45

**Q.** For CKDFLCQFCAQRDGRKDHLTRHTK, which protein stability index is on record?
**A.** 2.65

**Q.** Which protein stability index does the source give for CKDFLCQFCAQRVGRKDHLTRHTK here?
**A.** 2.03

**Q.** For CKDFLCQFCAQRYGRKDHLTRHTK, which protein stability index is on record?
**A.** 1.99

**Q.** With CKDFLCQFCAQRCGRKDHLTRHTK as the variant, how does the protein stability index read?
**A.** 3.07

**Q.** For CKDFLCQFCAQRFGRKDHLTRHTQ, which protein stability index is on record?
**A.** 2.25

**Q.** For CKDFLCQFCAQRFGRKDHLTRHTT, which protein stability index is on record?
**A.** 2.24

**Q.** For CKDFLCQFCAQRFGRKDHLTRHTC, which protein stability index is on record?
**A.** 2.83

**Q.** With CKDFLCQFCAQRFGRKDHLTRHTR as the variant, how does the protein stability index read?
**A.** 2.08

**Q.** For CKDFLCQFCAQRFGRKDHLTRHTG, which protein stability index is on record?
**A.** 1.74

**Q.** For CKDFLCQFCAQTFGRKDHLTRHTK, which protein stability index is on record?
**A.** 1.88

**Q.** With CKDFLCQFCAQGFGRKDHLTRHTK as the variant, how does the protein stability index read?
**A.** 2.54

**Q.** Which protein stability index does the source give for CKDFLCQFCAQWFGRKDHLTRHTK here?
**A.** 2.14

**Q.** For CKDFLCQFCAQFFGRKDHLTRHTK, which protein stability index is on record?
**A.** 1.68

**Q.** For CKDFLCQFCAQDFGRKDHLTRHTK, which protein stability index is on record?
**A.** 1.65

**Q.** For CKDFLCQFCAQEFGRKDHLTRHTK, which protein stability index is on record?
**A.** 2.13

**Q.** With CKDFLCQFCAQPFGRKDHLTRHTK as the variant, how does the protein stability index read?
**A.** 1.81
